Key:
[1] = target: VcNTDEcCTR (Vibrio cholerae | Escherichia coli) (UniProt Q9KV11); assay: SDS-PAGE stability assay; 1 ug protein in loading buffer with 1% SDS heated at 95 °C for 0 to 300 s, 10% SDS-PAGE, hexamer and monomer bands quantified; hexamer to monomers
[2] = target: the molecule itself; assay: as above
[3] = target: the molecule itself; assay: SEC

Molecule	half-life of hexamer in 1% SDS at 95 °C [1] [s]	half-life of hexamer in 1% SDS at 95 °C [2] [s]	stoichiometry N [3]
VcNTDEcCTR (from UniProt Q9KV11 1-72; P0A6X3 73-102)	39.2	–	–
VcHfq72 (domain or fragment, also called VcHfq NTD; NTD alone of VcHfq) MAKGQSLQDPFLNALRRERIPVSIYLVNGIKLQGQIESFDQFVILLKNTVNQMVYKHAISTVVPARPVSHHS	–	32.1 ± 1.9	–
Vibrio cholerae Hfq (natural protein, also called VcHfq; full-length VcHfq) MAKGQSLQDPFLNALRRERIPVSIYLVNGIKLQGQIESFDQFVILLKNTVNQMVYKHAISTVVPARPVSHHSGDRPASDRPAEKSEE	–	33.2 ± 1.3	6
